Reference: PMC13061415

B1: Twa1 CTLH-CRA domain (58-190), wild type [mouse] / muskelin CTLH-CRA domain (205–735 Δ248–625) [rat] (parent)
chain 1: EHPMLTDMHDKLVLKGDFDACEELIEKAVNDGLFNQYISQQEYPSKDYLLRHCKYLIRKHRFEEKAQMDPLSALKYLQNDLYITVDHSDPEETKEFQLLASALFKSGSDFTALGFSDVDHTYAQRTQLFDTLVNFFPDSMTPPKGNLVDLITL
chain 2: SVDLETLDERIKIREMILKGQIQEAIALINSLHPELLDTNRYLYFHLQQQHLIELIRQRETEAALEFAQTQLAEQGEESRECLTEMERTLALLAFDSPEESPFGDLLHMMQRQKVWSEVNQAVLDYENRESTP

Variants of: B1
Experiment: ITC
Conditions: with muskelin CTLH-CRA domain (205–735 Δ248–625) [rat]; 160 µM muskelin + 16 µM Twa1 mutants
For chain 2 A68G Q69R A73Q L83K E87K L90F F95Y F103V, the Kd was 340 nM and the screen value was 0.88.

Same assay, conditions: with muskelin CTLH-CRA domain (205–735 Δ248–625) [rat]; 160 µM muskelin + 16 µM Twa1 mutants; read off a plot
chain 2 A68G Q69R A73Q L83K E87K L90F F95Y F103V gave a screen value of -9.2 kcal/mol.
